Assay results from the supplement of paper PMC12042874.
± gives the uncertainty stated by the source.

Test: amyloid nucleation score (Sup35N fusion, yeast selection) (log enrichment); library NNK2; higher = more nucleation; inactive = no reads after selection
In short: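 In psi-negative yeast, Sup35N fusions carrying peptides of 20 random codons were induced with 100 μM copper sulfate for 24 hours. The cells then grew 7 days at 30°C on medium lacking adenine and uracil, and plasmid inserts from input and output were Illumina-sequenced, excluding sequences with under 100 input reads. Nucleation score is the DiMSum log enrichment of output over input reads, centred on the mode score of non-aggregating sequences.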

Row | Substance | amyloid nucleation score
1 | RCNIWCHFPVCRAINIMLQA | -0.147 ± 1.1
2 | FIPEERDIWGYAPGNCIFFR | -1.77 ± 0.54
3 | SVNFSANRRNIDGFERAGPA | -0.476 ± 1.1
4 | TGQSHFSWQYLRTAAVYSRR | 0.569 ± 0.27
5 | YWPLVIFLAWPMKYFVLEVM | -0.417 ± 0.43
6 | VQCVMSESMDELYSLVLRCP | 0.998 ± 0.28
7 | FGNRRSCHDIRSWIDRYLVR | 1.69 ± 0.52
8 | GLEFFLGYGYIAARHWVSGS | 1.59 ± 0.13
9 | VTFSSIVTISLISYLQRFWR | 5.77 ± 0.04
10 | VLSPQVKRSHTFLGNDLRTD | 4.64 ± 0.072
11 | FFPPFVNLGVGTYQV | -1.37 ± 0.54
12 | WTYDVQGREVCYVKPYLAMW | 1.07 ± 0.32
13 | LEQFYCTMGSSFNMNGGMVI | -0.436 ± 0.29
14 | YVIVTDFYYNMVRVVFVRMA | 0.228 ± 1
15 | RQAKPICCHMVLLDSWPKSM | 0.164 ± 0.35
16 | SVCFFVLFYIYSYCRHVMKW | inactive
17 | GITYVVHSTRGTYREPEGPW | 0.469 ± 0.65
18 | YSTFSGH | 0.806 ± 0.27
19 | YLIKMTCVGIMFSV | 6.592 ± 0.04
20 | GKCRRPMCGGKFGDQGLLRL | 3.27 ± 0.11
21 | RPVWDNWLTGFLGMPMWGKT | 0.112 ± 0.43
22 | HSTIAVSCY | 0.219 ± 1
23 | LINVMLS | inactive
24 | SRNNIAQFCSLHAN | inactive
25 | FTTMESDGMVFGL | 3.75 ± 0.061

Row | Substance | amyloid nucleation score
26 | EWLTLTDIFT | -0.619 ± 1
27 | YGSRVYLRVWKLGCFGQYGE | 1.68 ± 0.27
28 | TCSSPTMKSYMNHCLHVDSF | 0.516 ± 0.47
29 | FLNHE | inactive
30 | GGIRYVSVFQIFASCCFSRV | 8.977 ± 0.05
31 | VIYIWVSVPITPWESIIRGI | inactive
32 | FIVSDSRCVGNVTNGQSVLS | -0.97 ± 0.63
33 | DYSRLSLGICEVDDCTLRMV | -0.761 ± 0.39
34 | FTSFCMMKGPGLY | -1.44 ± 1.1
35 | PAMSVHGNSAESTYVIMHYF | -0.494 ± 0.54
36 | SFSILLEDTSS | -0.162 ± 0.76
37 | MAESELQICMFYTMGCWDMV | -0.165 ± 0.42
38 | SLSNCSTWTSF | 0.02 ± 1
39 | MANVADMIVDGLM | 0.525 ± 0.49
40 | FILQELCWPVLSSIHFGNVA | -1.15 ± 0.36
41 | STFLCVLTGMCCMARMS | 0.54 ± 0.64
42 | MLSIVNCNGSRVGYWTDS | 5.85 ± 0.08
43 | IADIVEHCCAVRVCALGGLM | 0.393 ± 0.8
44 | NPELRRGWFTWYPVGPGMKQ | 0.175 ± 0.54
45 | SSRRV | 0.497 ± 0.56
46 | ARMITWGRNMILTPSPMRHK | -0.783 ± 1
47 | HFSLAC | -0.91 ± 0.48
48 | VPGDDPSIVTVMQMYGFSLI | -0.385 ± 0.64
49 | DANLQIH | -0.774 ± 0.45
50 | NYHKWNVDSDFVYKGYGGHC | -0.573 ± 0.48

Row | Substance | amyloid nucleation score
51 | FYNIRPETVAKAMKGLGWST | -0.136 ± 0.37
52 | FYSLTDPCICGCH | -0.341 ± 0.79
53 | HRTVRFP | inactive
54 | LVIALSFCY | 3.57 ± 0.069
55 | TIALPNFVWPKSSRKVYFS | -0.748 ± 0.32
56 | AFRDRWLKRMKLTYVVGCIN | -0.17 ± 0.45
57 | GSVHANKD | -0.299 ± 0.63
58 | RLTYCSQFVWTWCCNRAING | 9.062 ± 0.024
59 | HKRFKEGLSG | 0.047 ± 0.36
60 | SRLRRKEYGDWFFYYGWSTN | 0.237 ± 1
61 | YAWKNPYSCWICR | -0.174 ± 0.44
62 | FSLFWWMSHITREWISCMCM | -0.895 ± 1.1
63 | GLVGEGRACYVKHD | 0.861 ± 0.57
64 | DLLVCC | 1.28 ± 0.26
65 | FSNLPGH | 1.98 ± 0.15
66 | MFGGPTFNMRWFFTFFSRGR | 4.46 ± 0.046
67 | SWPPKAQLMAVARCSAREAD | -0.337 ± 1.1
68 | VFVARITSRTIIVLNESGFE | 5.21 ± 0.089
69 | IFYKPVFSLFVIGSRMNGGI | 7.29 ± 0.054
70 | VSNREMYVNR | 0.086 ± 0.74
71 | CGSRQAA | 5.3 ± 0.085
72 | CGNLSCPVGVCGIFRRPSTG | inactive
73 | KAKYTTILCCIDRCGCIGQY | 8.613 ± 0.046
74 | LNVKFK | -0.966 ± 1.1
75 | ECCQILCGSYWYIKYLSYDC | 1.8 ± 0.13

Row | Substance | amyloid nucleation score
76 | RTGHTINFVEQPMHTVPMWH | 5.08 ± 0.068
77 | QVLLGTLHKVY | 1.4 ± 0.49
78 | NILVTRNNKHTSFCYTSLLL | 2.22 ± 0.084
79 | GSSRLCRQYAVNFFDCHMYD | 4.78 ± 0.056
80 | LDIYYMMYYFRFSWD | -2.64 ± 0.75
81 | MFKDNLLIVLFMLLMGLMRW | 3.45 ± 0.069
82 | LFSLTGIKLE | -0.483 ± 1.1
83 | ATFVIY | -0.603 ± 1
84 | SRLGFMAKPLMDVS | 2.79 ± 0.09
85 | ISINTICSNVDIGYGVAVFH | 3.92 ± 0.071
86 | KVFLFIFGLLTESPGCDQSP | -0.536 ± 0.4
87 | QIFTKRVRTNLPFQFSNYVG | 0.479 ± 0.74
88 | FCWRYNSKIRLKHGQDSGPR | -0.343 ± 0.33
89 | EHRSVRDLKRMQCEIYSRGV | 0.191 ± 0.8
90 | PCIFFMRFYFRT | -0.078 ± 0.65
91 | IVLEMLKVTRVGPKQIGWPW | 0.696 ± 0.38
92 | QARYFFTAARYITVLWKSTF | -0.487 ± 0.56
93 | ANMTSHEFRWKSN | -0.168 ± 1.1
94 | NVRFLMMI | inactive
95 | LLGARDFGWGLHGLLGYRLG | 0.123 ± 0.56
96 | TVGNF | 1.25 ± 0.47
97 | CNERFERLFISVTGFVMRRH | -0.358 ± 0.39
98 | FFSSTMNCVSLKRVKL | -0.432 ± 1.1
99 | VYRNVLSRMQSLCVF | inactive
100 | TYDSYRVIYISY | -0.372 ± 0.61

Row | Substance | amyloid nucleation score
101 | TFCVNFARRVSLRSVLATIG | 0.034 ± 0.43
102 | WFPLGQHEKAEILSLMIVDR | -0.154 ± 0.49
103 | ILILVLIECLILWFCYTMCI | 3.16 ± 0.049
104 | YLGICTMFDTGIGEIFTCCT | 5.78 ± 0.069
105 | IYACSCLIKVDFYEAIPIWV | inactive
106 | SDCFMGANDVMNKLEYGLDA | 0.091 ± 0.22
107 | CNMLRVNHRNLVLTDMCNG | 0.204 ± 0.8
108 | DKSIR | 0.239 ± 0.33
109 | HVNGL | 0.098 ± 0.5
110 | GLSRLTRYNNGNITTHSNWH | -0.074 ± 1.1
111 | KVSVTMHLAKMDFCRLWG | 7.11 ± 0.046
112 | YLLYSNRQISYTFYCDDTVC | inactive
113 | FKFYYVYYDITFYEC | -0.454 ± 0.28
114 | YRWVRVSNRGCRTNMIKYMS | -1.66 ± 0.36
115 | CTTSWKMSCKFALGN | 4.04 ± 0.07
116 | GSYVDEVSIYPDEACSYRLA | -0.187 ± 0.76
117 | WSITGG | 0.477 ± 0.66
118 | DRLGTYSS | 0.409 ± 0.54
119 | CLVWLDI | -1.11 ± 0.55
120 | VTSLDFKFNVGEY | 0.832 ± 0.67
121 | CKVSVDN | 0.011 ± 0.36
122 | SFKHLT | -0.853 ± 1.1
123 | KLGYHLSMIFVFRNVVCPYI | -0.711 ± 1.1
124 | CRWISTTLIFARCELFRLAV | 0.567 ± 0.38
125 | PCIRPLDKVCLIFFTGIFLW | -1.47 ± 0.78

Row | Substance | amyloid nucleation score
126 | KVSDRVGLEPKVCAQRRRNL | 0.025 ± 0.27
127 | TGAWLALFLGRHAKWLALFM | 0.817 ± 0.26
128 | FTWCRWVFWRNCYNDMEEDA | -1.01 ± 1.1
129 | DRYVSV | 0.455 ± 0.43
130 | LTIPDFRSGRRRVAQRDLVV | -0.157 ± 0.37
131 | IGESLRYIRRVILSMIFHLA | 1.18 ± 0.66
132 | YSGRREILYHNRVSPHCMNL | 2.64 ± 0.12
133 | VLDCRFKCCNFTRDLT | 7.67 ± 0.043
134 | MCCFRNSNVGAYRSSSIVNG | -0.403 ± 1
135 | KLSWRIRA | 0.403 ± 0.42
136 | YFNIYAVEIVLGIRLFNNVD | 1.99 ± 0.067
137 | FSSFVNREKMFIHFSNVVYF | 1.44 ± 0.1
138 | NGFYSGDFWEADGTRLDVTC | 0.053 ± 0.79
139 | GASVVDKSSRPCGAILEHSG | 0.894 ± 0.74
140 | RTSGAVDCTHRFFSEWFKGV | inactive
141 | VGCPEMGLVSLGSLLRLGSA | 0.968 ± 0.39
142 | RHFMLSSTCPEGMNENGTFS | 0.811 ± 0.51
143 | FVKGS | inactive
144 | YDAMFS | 1.09 ± 0.45
145 | GMLVELHYGPMY | 0.334 ± 0.56
146 | LNKNLLEKCLYRDLLLSVFW | -2.32 ± 1.1
147 | KAWFLESSKYSYRSWFR | -0.641 ± 0.38
148 | MEWKSGL | 0.534 ± 0.64
149 | IEYRNMLMLSCFNKYMDCLN | 4.45 ± 0.055
150 | EELAPSCAEDEILILSMLIN | -0.592 ± 0.76

Row | Substance | amyloid nucleation score
151 | TGYFTARNSAEVKRHVNLKR | 0.169 ± 0.8
152 | HATLNPSSLSATSSNPACRL | 0.171 ± 0.31
153 | RYLIGNSGNYVNGCVEQALR | -0.365 ± 0.76
154 | LLFCKPDAHFVLCSFYPLML | inactive
155 | LTSCGLVWCSIRRPGMKALV | -0.077 ± 0.76
156 | FSPIYRHGHKCML | -0.672 ± 0.54
157 | CFVGTQLSFKVG | 0.173 ± 0.49
158 | NAIYLVRMDYS | 0.138 ± 0.23
159 | SNMIHDEIWLMGEDSDF | 0.674 ± 0.49
160 | RVNCSFTDFVDVVIWKGRGN | 5.07 ± 0.089
161 | SFMGLAMHRSLSSCSVRSWY | 0.199 ± 0.53
162 | IYWLKTPMLLYWGSPCPRNA | 0.058 ± 1
163 | SVDSLWQYQSFRALFPCFMS | inactive
164 | SVVGSYYI | -0.878 ± 0.36
165 | YLKGNIKATVFTNSPMLV | -0.085 ± 0.79
166 | HAFRDIMYTVTRSWAKRWFY | 1.56 ± 0.11
167 | LIFGAKLESGYASVEFSDSD | -0.347 ± 1
168 | ASQFCNKSSSYRDSRYLYTL | -0.802 ± 0.38
169 | LLSGEDQLMKYLKSKNSCLW | -0.67 ± 0.79
170 | RTDRLCARHLGLFDDTVPET | 0.664 ± 0.21
171 | TSVNSILRYFRSRAMLKQGS | 1.11 ± 0.45
172 | AVVIWAKML | 0.372 ± 0.27
173 | CKLISFIRYPPPAYVVSRER | 2.33 ± 0.13
